Reference: paper PMC3017772, “The CaaX specificities of Arabidopsis protein prenyltransferases explain era1 and ggb phenotypes” (BMC Plant Biology, 2010)

Experiments:
[1] = target: recombinant Arabidopsis protein farnesyltransferase (PFT) (Arabidopsis (ecotype Col-0)) (UniProt Q9LX33)
[2] = target: recombinant Arabidopsis protein geranylgeranyltransferase type 1 (PGGT1) (Arabidopsis (ecotype Col-0)) (UniProt Q9LX33)
recombinant Arabidopsis protein geranylgeranyltransferase type 1 (PGGT1) (Arabidopsis (ecotype Col-0)), sequence (Q9LX33 whole entry, chain 1 of 2): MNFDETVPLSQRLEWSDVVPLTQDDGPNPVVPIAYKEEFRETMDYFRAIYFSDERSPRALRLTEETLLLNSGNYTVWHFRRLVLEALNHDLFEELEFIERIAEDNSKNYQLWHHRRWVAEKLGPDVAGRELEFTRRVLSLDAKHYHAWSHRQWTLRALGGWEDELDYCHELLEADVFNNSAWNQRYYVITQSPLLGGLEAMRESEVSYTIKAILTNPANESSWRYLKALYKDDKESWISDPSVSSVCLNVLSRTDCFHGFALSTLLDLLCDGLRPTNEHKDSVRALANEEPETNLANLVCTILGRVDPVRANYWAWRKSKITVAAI
recombinant Arabidopsis protein geranylgeranyltransferase type 1 (PGGT1) (Arabidopsis (ecotype Col-0)), sequence (O80642 whole entry, chain 2 of 2, further chain): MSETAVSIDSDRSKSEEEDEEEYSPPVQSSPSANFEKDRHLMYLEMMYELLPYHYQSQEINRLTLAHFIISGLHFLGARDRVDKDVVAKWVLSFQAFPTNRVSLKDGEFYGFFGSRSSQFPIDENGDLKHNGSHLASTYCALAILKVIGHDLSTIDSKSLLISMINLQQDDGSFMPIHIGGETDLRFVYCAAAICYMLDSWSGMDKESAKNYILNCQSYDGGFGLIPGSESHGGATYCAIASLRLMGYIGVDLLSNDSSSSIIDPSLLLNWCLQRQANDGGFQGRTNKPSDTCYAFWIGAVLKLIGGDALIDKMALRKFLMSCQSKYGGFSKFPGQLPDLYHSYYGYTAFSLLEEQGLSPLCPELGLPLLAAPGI

recombinant Arabidopsis protein farnesyltransferase (PFT) (Arabidopsis (ecotype Col-0)), sequence (Q9LX33 whole entry, chain 1 of 2): as the sequence (Q9LX33 whole entry, chain 1 of 2) above
recombinant Arabidopsis protein farnesyltransferase (PFT) (Arabidopsis (ecotype Col-0)), sequence (Q38920 whole entry, chain 2 of 2, further chain): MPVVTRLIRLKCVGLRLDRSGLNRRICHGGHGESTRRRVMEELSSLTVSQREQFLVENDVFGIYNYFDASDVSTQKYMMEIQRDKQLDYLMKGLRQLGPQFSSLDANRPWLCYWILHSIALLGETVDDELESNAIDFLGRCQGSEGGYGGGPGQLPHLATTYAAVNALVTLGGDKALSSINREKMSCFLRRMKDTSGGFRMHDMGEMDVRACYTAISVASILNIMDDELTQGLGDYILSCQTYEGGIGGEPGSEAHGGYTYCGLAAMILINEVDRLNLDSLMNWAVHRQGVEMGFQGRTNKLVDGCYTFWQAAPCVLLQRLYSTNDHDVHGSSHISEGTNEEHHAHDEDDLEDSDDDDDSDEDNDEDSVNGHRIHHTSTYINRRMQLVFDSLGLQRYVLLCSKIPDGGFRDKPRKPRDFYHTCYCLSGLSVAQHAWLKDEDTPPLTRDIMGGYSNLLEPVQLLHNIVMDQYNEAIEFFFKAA

| Km for the CaaX protein substrate; in vitro prenylation by purified PFT with [1-3H]farnesyl diphosphate, Lineweaver-Burk analysis [1] | Km for the CaaX protein substrate; in vitro prenylation by purified PGGT1 with [1-3H]geranylgeranyl diphosphate, Lineweaver-Burk analysis [2] | Substance |
| --- | --- | --- |
| 6.9 µM | 19 µM | GFP-BD-CVII |
| 7 µM | 17.2 µM | GFP-BD-CVIL |
| 5.4 µM | 5.8 µM | GFP-BD-CVIM |
| 5.5 µM | 3.5 µM | GFP-BD-CVIQ |
